Results reported in the supplement of paper PMC10724198.
± gives the standard deviation of the averaged measurements.

Test system: Saccharomyces cerevisiae
Assay: protein stability index of tFT-peptide fusion (C-terminal peptide) (PSI (0-1 scale)); higher = more stable (slower turnover)
Details: genetic background: wild type; temperature: 30 C
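Note: PSI is a weighted mean of sequencing reads over stability bins, variants kept only with over 10 reads, mCherry proximal and sfGFP distal, peptide attached via GGGS linker.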

Sequence	protein stability index
VGAGGSLPLNKV	0.6928 ± 0.0062
VGAPGGVETTKA	0.685 ± 0.015
VGARAIITIEFG	0.598 ± 0.018
VGASFVAVGVEG	0.641 ± 0.041
VGAWGLMLASVV	0.5698 ± 0.0055
VGAWRGVLVGGG	0.612 ± 0.0068
VGCFLDSLWDWV	0.679 ± 0.022
VGCGCVRGYWFG	0.734 ± 0.018
VGCPKMTKIFFV	0.594 ± 0.028
VGCVFVASRLVL	0.627 ± 0.038
VGCWLLGYFAHQ	0.675 ± 0.0095
VGDGAVGKTRGD	0.681 ± 0.039
VGDVGESMWGLG	0.727 ± 0.091
VGEGWGAMIMQE	0.737 ± 0.038
VGEGWWQKGMEV	0.676 ± 0.079
VGEVLCVGGAFY	0.659 ± 0.024
VGFISRIKSLYV	0.648 ± 0.0096
VGGCRVLCVGLG	0.651 ± 0.06
VGGGCGVRVVVV	0.684 ± 0.05
VGGGEVRAWGLR	0.661 ± 0.008
VGGGGGGCLVDC	0.653 ± 0.028
VGGGVGGRDGAS	0.659 ± 0.051
VGGRGGGRGVVG	0.672 ± 0.0073
VGGRLRECVRVG	0.628 ± 0.078
VGGRVGERRGAP	0.656 ± 0.044
VGGVWGGGWGHW	0.736 ± 0.021

Sequence	protein stability index
VGGWGGFGLFFP	0.742 ± 0.098
VGIGLTLSLRFS	0.598 ± 0.0066
VGLGEWMGALGV	0.6634 ± 0.006
VGLGFVVNAPGL	0.73 ± 0.1
VGLRPPRPAPPS	0.623 ± 0.035
VGMCVGEVVAIV	0.521 ± 0.015
VGPDGFWGVVLG	0.719 ± 0.023
VGPVGSVGVGGR	0.654 ± 0.013
VGPWQVQRLLWT	0.623 ± 0.056
VGRLGPMVGLLL	0.6 ± 0.083
VGRRDNHPTEKT	0.73 ± 0.025
VGRRTRGHDGVT	0.659 ± 0.078
VGSGEVFEVMEG	0.64 ± 0.036
VGSSSRSLFWCF	0.689 ± 0.04
VGSWSVICGGVL	0.6929 ± 0.0061
VGTGPGLKRPCH	0.774 ± 0.035
VGVEIKITKEKK	0.739 ± 0.038
VGVGPVGDVWLI	0.6979 ± 0.0027
VGWRCWVGSVGL	0.6686 ± 0.0029
VGYGRGGAVGVE	0.695 ± 0.012
VHLCLPPLPLHT	0.651 ± 0.019
VHPHPRSIKRER	0.6324 ± 0.0026
VIARALGLFLSD	0.693 ± 0.035
VIEIGEYSGNGK	0.707 ± 0.046
VIFFLPWYTPHP	0.6919 ± 0.0023
VIGSKQERRAEK	0.6905 ± 0.0016

Sequence	protein stability index
VIGWSGGCRWSV	0.73 ± 0.027
VIKESKKKTKKI	0.544 ± 0.044
VIPYLISSLYAV	0.691 ± 0.13
VIRDISAFSQVV	0.677 ± 0.07
VKGRKNEGPGKR	0.748 ± 0.065
VKGYGLILQISV	0.56537 ± 0.00043
VKKHRQTNGMVY	0.739 ± 0.018
VKVYHVPSTFSV	0.681 ± 0.029
VLCGALRIVGHK	0.603 ± 0.017
VLCKDGHRGFGC	0.589 ± 0.057
VLCLRSNRHGVF	0.698 ± 0.015
VLCRVALWGVGG	0.653 ± 0.02
VLEGAWPGAEAV	0.722 ± 0.083
VLFCQLFCDFFG	0.631 ± 0.084
VLFGLFAPCFLF	0.59 ± 0.019
VLFGSVSCCLLW	0.686 ± 0.043
VLFLLSGPAILL	0.682 ± 0.0075
VLFSSDLIVPQL	0.725 ± 0.018
VLGGLGWVCWVV	0.531 ± 0.013
VLGLALYTLSTS	0.68 ± 0.041
VLLAVGELFRVD	0.649 ± 0.0084
VLLEGCQSYVIW	0.652 ± 0.03
VLLLGYDRGWDD	0.718 ± 0.015
VLLLLPASTPSL	0.696 ± 0.079
VLMGAGGHSWER	0.725 ± 0.037
VLNCVGLSLLVE	0.6068 ± 0.00076

Sequence	protein stability index
VLPPLPGPPTLS	0.6945 ± 0.0033
VLPPPRHPLPRP	0.698 ± 0.04
VLSCCTAVAYPF	0.593 ± 0.028
VLSLLPSLLPPF	0.7408 ± 0.0061
VLSSSPFLHFGC	0.663 ± 0.072
VLSVGQVGRCVS	0.642 ± 0.043
VLTWGLLGRSAF	0.729 ± 0.063
VLYCYPYLVLPP	0.678 ± 0.013
VNATDYDGQPIT	0.679 ± 0.11
VNENNQKGNKKT	0.654 ± 0.12
VNIHVCSYGIFA	0.5071 ± 0.0025
VNKNKKNVEYIK	0.657 ± 0.013
VNQVRVSICDLL	0.69263 ± 0.00047
VPCLVHEVYDEV	0.732 ± 0.029
VPFPHALLSALP	0.638 ± 0.037
VPGIGGGVSVRG	0.612 ± 0.14
VPLCSGKLAQIS	0.757 ± 0.0085
VPLPPPFPASLT	0.61 ± 0.027
VPPHSLPPPTHP	0.753 ± 0.048
VPPPPPSRSRPV	0.713 ± 0.032
VPPPTRRTPPAP	0.734 ± 0.052
VPPVLRPLPPSP	0.72 ± 0.025
VPRFTPYRAIFP	0.591 ± 0.016
VPRTPPTTSWFP	0.682 ± 0.026
VPSPHLQPTVSP	0.654 ± 0.0074
VPTELGGTLIPT	0.664 ± 0.11

Sequence	protein stability index
VPVRLRSGGVSP	0.66 ± 0.058
VPVVQPNRSALI	0.7454 ± 0.0071
VQQSRTQKDQHV	0.623 ± 0.054
VQRPALPPRHPP	0.612 ± 0.005
VRARRSSREVNY	0.755 ± 0.05
VRCCFGGRGGRA	0.637 ± 0.035
VRCGGRGRAGKG	0.634 ± 0.03
VRCWEDGFLDSS	0.7293 ± 0.0042
VREMMGFWFVPL	0.691 ± 0.11
VRFPCGFCKKLS	0.637 ± 0.036
VRFYVFSFSNWL	0.586 ± 0.031
VRGGVSWGMRGG	0.634 ± 0.089
VRGVGGLWVGAV	0.684 ± 0.012
VRGVGLVDVVGL	0.727 ± 0.12
VRIIVVDLGGRR	0.684 ± 0.0082
VRKKGKKKKKDK	0.678 ± 0.031
VRKKRKKELAKV	0.794 ± 0.086
VRQSQIKHVVVQ	0.627 ± 0.019
VRRLSASSDGKI	0.761 ± 0.14
VRRWGKWSIVGW	0.736 ± 0.03
VRSILEGRRGEK	0.709 ± 0.032
VRSTPLKEMMRH	0.681 ± 0.0092
VRVRSLEGWGMG	0.6687 ± 0.0048
VRVSSSDILICL	0.675 ± 0.079
VRWSRFCLAFPV	0.605 ± 0.04
VSDTRELSSDQI	0.656 ± 0.02

Sequence	protein stability index
VSFGFHKWCHSR	0.638 ± 0.015
VSGGRQVGGGGW	0.72 ± 0.088
VSGGRQVGWGGW	0.686 ± 0.011
VSGICCRGVLLL	0.6268 ± 0.00045
VSGLGAHEPDKL	0.667 ± 0.0072
VSGSTGVWCRWG	0.668 ± 0.048
VSGVREGCSEME	0.773 ± 0.11
VSLGHGYVFRRV	0.6921 ± 0.0058
VSMPVGWRSWGG	0.694 ± 0.013
VSPTRSRPSSPA	0.692 ± 0.055
VSRLTVIPAVQT	0.652 ± 0.027
VSRRCVALRVGN	0.579 ± 0.017
VSRVDGAGHSAV	0.66 ± 0.0088
VSSAGAQHQVTH	0.667 ± 0.025
VSSRWGGWWNGV	0.655 ± 0.046
VSSVEHCLGHCR	0.738 ± 0.11
VSVFNFPSLFVG	0.66 ± 0.063
VSVGVCGYKVWG	0.709 ± 0.1
VSVILAGLFWIT	0.473 ± 0.038
VSVLCADGVLRM	0.725 ± 0.028
VSVLCGSRLAFE	0.685 ± 0.04
VSVRLAINRKEW	0.6738 ± 0.00093
VSWVMSEMRKGE	0.697 ± 0.031
VSWVWMGRLGYC	0.657 ± 0.02
VTCALGIGGVGV	0.716 ± 0.05
VTFRCHHSRQVM	0.725 ± 0.14

Sequence	protein stability index
VTGCAVLSGAGE	0.675 ± 0.051
VTGSHARFSVPE	0.658 ± 0.013
VTHDSACSSRLA	0.683 ± 0.019
VTHREFAGSALG	0.698 ± 0.022
VTLSYDTKWLWL	0.665 ± 0.07
VTPLPPPRTFLP	0.67 ± 0.07
VTPPTPPSRASP	0.667 ± 0.02
VTPVPFRTMMST	0.571
VTREEVSAGRGR	0.657 ± 0.058
VTRLTGKLVAEK	0.576 ± 0.027
VTSSLHAVPWSR	0.693 ± 0.0088
VTTDLALCGSVC	0.624 ± 0.016
VTTPHPPAPPPP	0.765 ± 0.02
VTTQELRCRPEG	0.636 ± 0.019
VTVCQTRGADSV	0.579 ± 0.01
VVAGGERMRTGV	0.671 ± 0.022
VVCLGLPIQAGV	0.526 ± 0.017
VVCVGGVELLVL	0.532 ± 0.019
VVCVGSEVGEGG	0.7243 ± 0.0045
VVFEVFLTHMSM	0.624 ± 0.065
VVFFSSPHFVRA	0.609 ± 0.05
VVGAVVLRRGGP	0.67 ± 0.012
VVGFVPVWRAGS	0.593 ± 0.031
VVGSVFGGVRAA	0.708 ± 0.032
VVGVAVSRTFAR	0.618 ± 0.039
VVIFPPTFISGG	0.643 ± 0.1

Sequence	protein stability index
VVIRVKDEPFIM	0.6781 ± 0.0067
VVKFLALIPLSP	0.583 ± 0.01
VVLLGAVGLVER	0.679 ± 0.029
VVLRSTFFGSLL	0.699 ± 0.0089
VVLSCGIPGCVF	0.572 ± 0.028
VVLSRSLTDLVR	0.677 ± 0.077
VVLTGPGYCLTL	0.763 ± 0.047
VVNVVGRVVPKG	0.7396 ± 0.006
VVQLSKWSTIIR	0.64 ± 0.061
VVRHWRRMTGDA	0.629 ± 0.12
VVRLGSNYYGGT	0.756 ± 0.004
VVRWFGGGGVRG	0.719 ± 0.1
VVSGIFQVLATC	0.614 ± 0.084
VVSHRGVGKGEG	0.607 ± 0.047
VVSLGLGGFVVR	0.719 ± 0.033
VVTGVRFGVGSI	0.697 ± 0.039
VVVGGVWIRRVW	0.654 ± 0.052
VVVGPVTKRGGH	0.68 ± 0.046
VVVQSGSSYKEY	0.7 ± 0.11
VVVVCSWPVSLL	0.5744 ± 0.0042
